{"source": "patent US20180305449A1", "about": "(ONCOMED PHARMACEUTICALS, published 2018)", "binders": {"B1": {"name": "anti-VEGF/anti-DLL4 bispecific antibody 219R45-MB-21R79 (bispecific antibody, human IgG2)", "heavy 1": "QVQLVQSGAEVKKPGASVKVSCKASGYTFTNYWMHWVRQAPGQGLEWMGDINPSNGRTSYKEKFKRRVTLSVDKSSSTAYMELSSLRSEDTAVYFCTIHYDDKYYPLMDYWGQGTLVTVSSASTKGPSVFPLAPCSRSTSESTAALGCLVKDYFPEPVTVSWNSGALTSGVHTFPAVLQSSGLYSLSSVVTVPSSNFGTQTYTCNVDHKPSNTKVDKTVERKCCVECPPCPAPPVAGPSVFLFPPKPKDTLMISRTPEVTCVVVDVSHEDPEVQFNWYVDGVEVHNAKTKPREEQFNSTFRVVSVLTVVHQDWLNGKEYKCKVSNKGLPAPIEKTISKTKGQPREPQVYTLPPSREKMTKNQVSLTCLVKGFYPSDIAVEWESNGQPENNYKTTPPMLKSDGSFFLYSKLTVDKSRWQQGNVFSCSVMHEALHNHYTQKSLSLSPGK", "heavy 2": "QVQLVQSGAEVKKPGASVKISCKASGYSFTAYYIHWVKQAPGQGLEWIGYIANYNRATNYNQKFKGRVTFTTDTSTSTAYMELRSLRSDDTAVYYCARDYDYDVGMDYWGQGTLVTVSSASTKGPSVFPLAPCSRSTSESTAALGCLVKDYFPEPVTVSWNSGALTSGVHTFPAVLQSSGLYSLSSVVTVPSSNFGTQTYTCNVDHKPSNTKVDKTVERKCCVECPPCPAPPVAGPSVFLFPPKPKDTLMISRTPEVTCVVVDVSHEDPEVQFNWYVDGVEVHNAKTKPREEQFNSTFRVVSVLTVVHQDWLNGKEYKCKVSNKGLPAPIEKTISKTKGQPREPQVYTLPPSREEMTKNQVSLTCLVEGFYPSDIAVEWESNGQPENNYKTTPPMLDSDGSFFLYSELTVDKSRWQQGNVFSCSVMHEALHNHYTQKSLSLSPGK", "light": "DIVMTQSPDSLAVSLGERATISCRASESVDNYGISFMKWFQQKPGQPPKLLIYAASNQGSGVPDRFSGSGSGTDFTLTISSLQAEDVAVYYCQQSKEVPWTFGGGTKVEIKRTVAAPSVIFPPSDEQLKSGTASVVCLLNNFYPREAKVQWKVDNALQSGNSQESVTEQDSKDSTYSLSSTLTLSKADYEKHKVYACEVTHQGLSSPVTKSFNRGEC", "notes": "Monovalent/bispecific IgG2 heterodimer with charge-modified CH3 domains and two identical light chains"}}, "key": {"[1]": {"target": "T1, Recombinant human DLL4-Fc (human, UniProt Q9NR61 27-522, limits assumed)", "T1 construct": "also called hDLL4; hDLL4-Fc; not shown: Fc portion", "T1 sequence (Q9NR61 27-522 limits assumed)": "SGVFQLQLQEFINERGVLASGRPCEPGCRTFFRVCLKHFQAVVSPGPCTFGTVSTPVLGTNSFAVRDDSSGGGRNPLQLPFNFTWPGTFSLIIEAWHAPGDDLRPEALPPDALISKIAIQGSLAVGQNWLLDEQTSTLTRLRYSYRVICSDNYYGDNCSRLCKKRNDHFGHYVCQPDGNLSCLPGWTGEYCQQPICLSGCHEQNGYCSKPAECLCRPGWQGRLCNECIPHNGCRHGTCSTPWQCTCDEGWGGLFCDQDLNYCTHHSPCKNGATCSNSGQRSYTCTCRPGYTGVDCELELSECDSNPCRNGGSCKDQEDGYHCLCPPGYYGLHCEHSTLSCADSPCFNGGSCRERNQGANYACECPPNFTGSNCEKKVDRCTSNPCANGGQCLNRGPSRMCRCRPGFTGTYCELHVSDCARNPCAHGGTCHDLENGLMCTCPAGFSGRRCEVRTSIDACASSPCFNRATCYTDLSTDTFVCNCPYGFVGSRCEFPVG", "assay": "SPR (Biacore 2000), human DLL4-Fc on CM5 chip; ratio of KDs against 219R45-MB-21M18", "method": "(§1) The KDs of parental antibodies anti-VEGF 219R45 (IgG format), anti-DLL4 21R79 (IgG format), anti-DLL4 21M18 (IgG format) and bispecific antibodies 219R45-MB-21M18 and 219R45-MB-21R79 were determined using a Biacore 2000 system from Biacore LifeSciences (GE Healthcare). Recombinant human DLL4-Fc or mouse DLL4-Fc proteins were immobilized on CM5 carboxyl chips using standard amine-based chemistry (NHS/EDC) and blocked with ethanolamine Recombinant human VEGF₁₆₅ or mouse VEGF₁₆₅ were biotinylated and immobilized on streptavidin chips. The antibodies were serially diluted 2-fold from 100 nM to 0.78 nM in HBS-P (0.01M HEPES pH7.4, 0.15M NaCl, 0.005% v/v Polysorbate 20). For each antibody, all 8 dilutions were sequentially injected over a specific chip. Kinetic data were collected over time and were fit using the simultaneous global fit equation to yield affinity constants (KD values) for each bispecific antibody."}, "[2]": {"target": "T1, Recombinant human DLL4-Fc", "assay": "SPR (Biacore 2000), human DLL4-Fc amine-coupled on CM5 chip, antibody as analyte", "method": "as §1"}, "[3]": {"target": "T1, Recombinant human DLL4-Fc", "assay": "SPR (Biacore 2000), human DLL4-Fc amine-coupled on CM5 chip, antibody as analyte", "method": "as §1\nSeveral additional anti-DLL4 antibodies were identified that had binding affinities intermediate to the KDs of 21M18 and 21R79. Two of these anti-DLL4 antibodies were used to produce anti-VEGF/anti-DLL4 bispecific antibodies 219R45-MB-21R75 and 219R45-MB-21R83. Using the Biacore 2000 system as described above, the KDs of the bispecific antibodies 219R45-MB-21R75 and 219R45-MB-21R83 to human DLL4 were determined.", "remark": "listed apart in the source"}, "[4]": {"target": "T2, Recombinant human VEGF165 (human, UniProt P15692-4 27-191)", "T2 construct": "also called hVEGF; hVEGF165", "assay": "SPR (Biacore 2000), biotinylated human VEGF165 on streptavidin chip, antibody as analyte", "method": "as §1"}, "[5]": {"target": "T3, Recombinant mouse VEGF165 (mouse, UniProt Q00731-2 27-190)", "T3 construct": "also called mVEGF", "T3 sequence (looked up)": "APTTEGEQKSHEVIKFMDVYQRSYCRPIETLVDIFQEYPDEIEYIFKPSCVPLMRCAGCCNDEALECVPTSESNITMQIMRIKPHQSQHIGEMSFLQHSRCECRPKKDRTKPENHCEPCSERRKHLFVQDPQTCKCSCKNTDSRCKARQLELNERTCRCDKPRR", "assay": "SPR (Biacore 2000), biotinylated mouse VEGF165 on streptavidin chip, antibody as analyte", "method": "as §1"}, "biotin-DLL4-hFc [6]": {"target": "T4, biotin-DLL4-hFc (UniProt Q9NR61 27-522, limits assumed, biotinylated (site not stated))", "T4 construct": "not shown: human Fc (hFc)", "T4 sequence (Q9NR61 27-522 limits assumed)": "as the sequence (Q9NR61 27-522 limits assumed) above", "assay": "Bispecific bridging ELISA (VEGF-coated plate, biotin-DLL4-hFc detection); ratio against 219R45-MB-21M18", "method": "(§2) VEGF (ATGEN, South Korea) was coated onto Nunc maxisorb plates at 2 ug/ml (100 μl/well) and incubated overnight at 2-8° C. Bispecific antibodies 219R45-MB-21M18, 219R45-MB-21R79, 219R45-MB-21R75, and 219R45-MB-21R83 were diluted in blocking buffer (lx PBS, 0.1% gelatin, 0.1% Polysorbate-20, pH 7.4) containing 2 μg/ml biotin-DLL4-hFc. The antibodies were serially diluted 3-fold from 500 ng/ml to 0.008 ng/ml. The antibody samples were incubated for 2 hours in blocking buffer containing the biotin-DLL4-hFc. After incubation, the antibody samples were transferred to the VEGF-coated assay plate (100 ul/well) and incubated for 2 hours. Streptavidin-HRP (Jackson ImmunoResearch, West Grove, Pa.) was added to each well and incubated for 1 hr. TMB substrate was added to the wells with a 10 minute color development and the reaction was stopped with 2M sulfuric acid. Absorbance was read at 450-650 nm and the data analyzed using the 4-parameter fit within the Softmax Pro analysis program (Molecular Devices, Sunnyvale, Calif.)."}, "biotin-DLL4-hFc [7]": {"target": "T4, biotin-DLL4-hFc", "assay": "bispecific sandwich ELISA: antibody pre-incubated with 2 ug/ml biotin-DLL4-hFc, captured on VEGF-coated plate, detected with streptavidin-HRP", "method": "FIG. 7. Bispecific antibody ELISA. Bispecific antibodies 219R45-MB-21M18, 219R45-MB-21R79, 219R45-MB-21R75, and 219R45-MB-21R83 were diluted in blocking buffer (lx PBS, 0.1% gelatin, 0.1% Polysorbate-20, pH 7.4) containing 2 μg/ml biotin-DLL4-hFc. The antibodies were serially diluted 3-fold from 500 ng/ml to 0.008 ng/ml. The antibody samples were incubated for 2 hours in blocking buffer containing the biotin-DLL4-hFc. After incubation, the antibody samples were transferred to a VEGF-coated assay plate (100 ul/well) and incubated for 2 hours. Streptavidin-HRP was added to each well and incubated for 1 hr. TMB substrate was added to the wells with a 10 minute color development and the reaction was stopped with 2M sulfuric acid. Absorbance was read at 450-650 nm and the data analyzed using the 4-parameter fit within the Softmax Pro analysis program.\nas §2"}, "biotin-DLL4-hFc [8]": {"target": "T4, biotin-DLL4-hFc", "assay": "Bispecific bridging ELISA: antibody pre-incubated with biotin-DLL4-hFc, captured on VEGF (ATGEN)-coated plate, streptavidin-HRP; potency relative to a reference anti-VEGF/anti-DLL4 bispecific antibody", "method": "as §2"}}, "note": "Read-outs that look alike come from different tables or passages of the source."}
{"binder": "B1", "values": [{"measurement": "fold stronger binding than 219R45-MB-21M18", "setting": "[1]", "value": "~30", "unit": "fold"}, {"measurement": "Kd", "setting": "[2]", "value": 0.53, "unit": "nM"}, {"measurement": "Kd", "setting": "[3]", "value": 0.53, "unit": "nM"}, {"measurement": "Kd", "setting": "[4]", "value": 0.68, "unit": "nM"}, {"measurement": "Kd", "setting": "[5]", "value": 12.5, "unit": "nM"}, {"measurement": "fold more potent than 219R45-MB-21M18", "setting": "biotin-DLL4-hFc [6]", "value": "~7", "unit": "fold"}, {"measurement": "EC50 (read off the curve)", "setting": "biotin-DLL4-hFc [7]", "value": "~0.6", "unit": "ng/mL"}, {"measurement": "Relative Potency (%)", "setting": "biotin-DLL4-hFc [8]", "value": 501, "unit": "%"}]}
